Experimental data taken from paper PMC3145792.
Where “and” joins values, the source holds several entries; their conditions need not be identical. Identical values can stand only once.

Target: SECRET domain (smallpox virus-encoded chemokine receptor domain) of the vTNFR CrmD encoded by ectrom (ectromelia virus)
Assay: SPR

Row | Substance | Kd | koff | kon
1 | chemokine domain of human CX3CL1 (residues 1-76), mutant F49A (from UniProt P78423 25-100) (domain or fragment) | 3.75 µM and 4.64 µM and 4.2 µM |  | 
2 | chemokine domain of human CX3CL1 (residues 1-76), mutant I19A (from UniProt P78423 25-100) (domain or fragment) | 1.28 µM and 0.641 µM and 0.96 µM | 0.00689 s⁻¹ and 0.00578 s⁻¹ | 5380 M⁻¹ s⁻¹ and 9020 M⁻¹ s⁻¹
3 | chemokine domain of human CX3CL1 (residues 1-76), mutant K18A (from UniProt P78423 25-100) (domain or fragment) | 10.9 µM and 11.5 µM and 10.3 µM | 0.0103 s⁻¹ and 0.00518 s⁻¹ | 1000 M⁻¹ s⁻¹ and 450 M⁻¹ s⁻¹
4 | chemokine domain of human CX3CL1 (residues 1-76), mutant L23A (from UniProt P78423 25-100) (domain or fragment) | 3.36 µM and 5.62 µM and 4.49 µM |  | 
5 | chemokine domain of human CX3CL1 (residues 1-76), mutant R44A (from UniProt P78423 25-100) (domain or fragment) | 15.7 µM and 16.6 µM and 16.1 µM |  | 
6 | chemokine domain of human CX3CL1 (residues 1-76), mutant R47A (from UniProt P78423 25-100) (domain or fragment) | 34.5 µM and 38.4 µM and 36.5 µM |  | 
